Results taken from patent US20260242478A1 (published 2026).
Where no end group is shown, it is not given here.

B1: Phage-2643 (peptide)
peptide: VEKLCKPAWMCNGQ
modifications: cysteine pairing not given here; also: displayed on phage pIII, linker not given here
notes: Clonal phage of the Peptide-180 library, tested as crude phage supernatant; not shown: pIII filament protein of the bacteriophage
B2: Phage-2638 (peptide)
peptide: WAKWCTPVWMCQGI
modifications: cysteine pairing not given here; also: displayed on phage pIII, linker not given here
notes: as for B1
B3: Phage-2645 (peptide)
peptide: FPKWCTPEWMCSLT
modifications: cysteine pairing not given here; also: displayed on phage pIII, linker not given here
notes: as for B1
B4: Phage-2640 (peptide)
peptide: VPKWCTPEWMCIIH
modifications: cysteine pairing not given here; also: displayed on phage pIII, linker not given here
notes: as for B1
B5: Phage-2641 (peptide)
peptide: AEKLCIPDWMCDVY
modifications: cysteine pairing not given here; also: displayed on phage pIII, linker not given here
notes: as for B1
B6: Phage-2634 (peptide)
peptide: TDKLCRPPWMCELM
modifications: cysteine pairing not given here; also: displayed on phage pIII, linker not given here
notes: as for B1
B7: Phage-2639 (peptide)
peptide: VGNWCTPMWMCQAF
modifications: cysteine pairing not given here; also: displayed on phage pIII, linker not given here
notes: as for B1
B8: Phage-2635 (peptide)
peptide: DMKWCTPAWMCQSS
modifications: cysteine pairing not given here; also: displayed on phage pIII, linker not given here
notes: as for B1
B9: Phage-2642 (peptide)
peptide: DLKWCIPSWMCTST
modifications: cysteine pairing not given here; also: displayed on phage pIII, linker not given here
notes: as for B1
B10: Phage-2637 (peptide)
peptide: TVKWCTPPWMCEES
modifications: cysteine pairing not given here; also: displayed on phage pIII, linker not given here
notes: as for B1
B11: Phage-2636 (peptide)
peptide: DDRWCIPTWMCFLD
modifications: cysteine pairing not given here; also: displayed on phage pIII, linker not given here
notes: as for B1
B12: Phage-2644 (peptide)
peptide: PERMCVPQWMCTVT
modifications: cysteine pairing not given here; also: displayed on phage pIII, linker not given here
notes: as for B1

Columns and labels:
[1] = biological target: T1, PSMA Fab (006 PSMA Fab) (biotinylated (site not given)); assay: clonal phage ELISA; biotinylated PSMA Fab on neutravidin plate, blocking buffer alone; anti-M13 HRP detection;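 further: crude clonal phage supernatants added without washing to wells pretreated with blocking buffer with or without PSMA antigen, short incubation, then washed before detecting bound phage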
T1 construct: also called Anti-PSMA Fab; anti-PSMA Fab

[2] = biological target: T1, PSMA Fab (006 PSMA Fab); assay: clonal phage ELISA; biotinylated PSMA Fab on neutravidin plate, wells pre-incubated with PSMA antigen as competitor; anti-M13 HRP detection;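 further: crude clonal phage supernatants added to antigen-treated wells without a wash, incubated briefly, then bound phage read out via horse radish–conjugated anti-M13 antibody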
Protocol: Clonal phage were harvested as crude supernatants and screened via standard ELISAs. […] Prior to the addition of clonal phage. wells were incubated with blocking buffer and PSMA antigen or blocking buffer alone. Without washing or aspirating, clonal phage supernatants were then added to the wells and incubated for a short time. Wells were then washed followed by detection of bound phage using a horse radish conjugated anti-M13 antibody.

Binder	Phage binding ELISA signal, Anti-PSMA Fab [1]	Phage binding ELISA signal, Anti-PSMA Fab with PSMA antigen [2]
B1	0.956	0.0808
B2	0.961	0.136
B3	0.955	0.0592
B4	0.958	0.0705
B5	0.957	0.0771
B6	0.966	0.065
B7	0.961	0.0864
B8	0.966	0.0701
B9	0.957	0.0977
B10	0.964	0.0943
B11	0.965	0.0733
B12	0.956	0.107
